US20080009025A1, “PROTEIN KINASE REGULATION” (priority 1999, published 2008)

Target: GST-PDK1[K115A], O15530
Assay: cell-based or functional assay

Chain of GST-PDK1[K115A], O15530 (O15530 whole entry K115A): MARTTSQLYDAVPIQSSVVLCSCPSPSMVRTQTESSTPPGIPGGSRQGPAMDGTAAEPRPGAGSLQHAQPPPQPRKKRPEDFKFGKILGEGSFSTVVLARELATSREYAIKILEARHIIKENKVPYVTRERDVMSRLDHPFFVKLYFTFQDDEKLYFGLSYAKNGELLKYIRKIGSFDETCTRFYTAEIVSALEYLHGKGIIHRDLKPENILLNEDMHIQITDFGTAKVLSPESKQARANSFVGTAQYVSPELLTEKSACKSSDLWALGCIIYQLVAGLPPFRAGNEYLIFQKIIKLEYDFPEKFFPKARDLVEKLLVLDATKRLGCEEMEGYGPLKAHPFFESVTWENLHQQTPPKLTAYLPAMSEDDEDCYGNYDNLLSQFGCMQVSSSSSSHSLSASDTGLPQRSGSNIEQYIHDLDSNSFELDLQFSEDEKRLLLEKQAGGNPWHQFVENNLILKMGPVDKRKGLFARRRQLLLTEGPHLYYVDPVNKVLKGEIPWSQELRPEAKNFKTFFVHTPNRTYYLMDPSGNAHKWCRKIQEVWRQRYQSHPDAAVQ

inhibition by 2 µM PIFtide of the activation of S6K1-T2[T412E] and SGK1[T422D] by this PDK1 mutant: 50%
inhibition by 35 µM PIFtide of the activation of S6K1-T2[T412E] and SGK1[T422D] by this PDK1 mutant: > 95%
Binder: REPRILSEEEQEMFRDFDYIADWC [PIFtide (24 residue synthetic peptide encompassing the PDK1 binding site on PIF)]
